Data on 4 molecules can be found in paper doi:10.1101/2023.08.19.553944.

Among the targets are PTBP2 (TnT) (UniProt Q9UKA9 1-531); GST-PTBP1 (UniProt P26599 1-557); GST-hnRNP A1 (UniProt P09651-2 1-320); hnRNP A1 (TnT) (UniProt P09651-2 1-320); GST-PTBP2 (UniProt Q9UKA9 1-531).
What all share (experiment): EMSA
Data set [1] addresses T1, 5xH-PTBP1 (UniProt P26599 1-557).
The target in data set [2] is T1, 5xH-PTBP1. The source holds these as a separate data set.

Read-outs that look alike come from different tables or passages of the source.

T1 sequence (P26599 whole entry): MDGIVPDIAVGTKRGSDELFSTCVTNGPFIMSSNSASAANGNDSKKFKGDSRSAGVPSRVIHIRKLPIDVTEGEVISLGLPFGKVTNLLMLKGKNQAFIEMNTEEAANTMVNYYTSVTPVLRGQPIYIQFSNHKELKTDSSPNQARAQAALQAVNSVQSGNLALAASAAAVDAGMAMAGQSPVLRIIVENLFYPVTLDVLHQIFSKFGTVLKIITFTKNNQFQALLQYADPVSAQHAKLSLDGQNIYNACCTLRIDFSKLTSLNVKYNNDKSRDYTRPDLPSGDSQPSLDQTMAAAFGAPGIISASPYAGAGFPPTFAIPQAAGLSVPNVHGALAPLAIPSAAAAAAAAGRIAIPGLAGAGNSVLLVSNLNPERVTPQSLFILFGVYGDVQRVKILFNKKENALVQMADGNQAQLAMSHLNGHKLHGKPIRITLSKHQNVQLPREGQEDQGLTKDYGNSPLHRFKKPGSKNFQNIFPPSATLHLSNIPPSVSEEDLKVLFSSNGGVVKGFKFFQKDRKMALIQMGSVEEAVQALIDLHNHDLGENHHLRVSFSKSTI
GST-PTBP1, sequence (P26599 whole entry): as above
GST-PTBP2, sequence (Q9UKA9 whole entry): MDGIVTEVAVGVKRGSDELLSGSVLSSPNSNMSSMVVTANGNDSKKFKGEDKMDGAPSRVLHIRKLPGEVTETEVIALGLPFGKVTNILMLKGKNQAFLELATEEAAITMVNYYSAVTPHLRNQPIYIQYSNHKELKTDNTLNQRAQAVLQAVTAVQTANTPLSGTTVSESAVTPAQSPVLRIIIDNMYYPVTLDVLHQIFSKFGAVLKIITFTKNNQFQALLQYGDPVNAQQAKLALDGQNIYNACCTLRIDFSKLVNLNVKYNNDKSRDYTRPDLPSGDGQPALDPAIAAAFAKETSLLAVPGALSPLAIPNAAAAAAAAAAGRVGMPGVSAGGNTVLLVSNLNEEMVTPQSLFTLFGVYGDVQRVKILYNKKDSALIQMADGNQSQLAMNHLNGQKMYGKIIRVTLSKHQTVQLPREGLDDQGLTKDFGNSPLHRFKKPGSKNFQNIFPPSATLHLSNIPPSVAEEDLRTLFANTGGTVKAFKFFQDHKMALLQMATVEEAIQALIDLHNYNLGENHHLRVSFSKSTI
PTBP2 (TnT), sequence (Q9UKA9 whole entry): as above

B1: U7/SPL (structured_RNA)
RNA: CAGUGUUACAGCUCUUUUAGAAUUUUUGGAGUAGGCUUUCUGGCUUUUUACCGGAAAGCCCCUCUUAUG
Turning to B1, the binding result is “no binding” with PTBP2 (TnT), “binds” with 5xH-PTBP1 [1] and “binds” in the data set with GST-PTBP1.

B2: U7/2xGA (structured_RNA)
RNA: CAGUGUUACAGCUCUUUUGAAAUUUGUCUGAUAGGCUUUCUGGCUUUUUACCGGAAAGCCCCUCUUAUG
B2: the binding result in the data set with GST-hnRNP A1 is recorded as “no binding”; with hnRNP A1 (TnT) it was “no binding”; in the data set with 5xH-PTBP1 [2], “binds”.

B3: U7/2xMut (structured_RNA)
RNA: CAGUGUUACAGGAGAUUUAGAAUUUUUGGAGUAGGCUUUCUGGCUUUUUACCGGAAAGCCCCUCUUAUG
Consider B3, for which the binding result with GST-PTBP2 is reported as “no binding”; in the data set with hnRNP A1 (TnT), “binds”.

B4: U7/PU (structured_RNA)
RNA: CAGUGUUACAGGAGAUUUAGAAUUUGUCUAGUAGGCUUUCUGGCUUUUUACCGGAAAGCCCCUCUUAUG
As for B4, the binding result with 5xH-PTBP1 [1] and in the data set with GST-PTBP1 was “binds” throughout.
